# B1: 7C10-C5: α-carboxymethylation specific mouse monoclonal IgG1 antibody from single clone hybridoma 7C10-C5 (DSM ACC3350) (antibody)
# heavy: MYRMQLLSCIALSLALVTNSDVQLQESGPGLVKPSQSLSLTCSVTGYSITSGYYWNWIRQFPGNKLEWMGYISYDGSNNYNPSLKNRISITRDTSKNQFFLKLNSVTTEDTATYYCAGRFAYWGQGTLVTVSAAKTTAPSVYPLAPVCGDTTGSSVTLGCLVKGYFPEPVTLTWNSGSLSSGVHTFPAVLQSDLYTLSSSVTVTSSTWPSQSITCNVAHPASSTKVDKKIEPRGPTIKPCPPCKCPAPNLLGGPSVFIFPPKIKDVLMISLSPIVTCVVVDVSEDDPDVQISWFVNNVEVHTAQTQTHREDYNSTLRVVSALPIQHQDWMSGKEFKCKVNNKDLPAPIERTISKPKGSVRAPQVYVLPPPEEEMTKKQVTLTCMVTDFMPEDIYVEWTNNGKTELNYKNTEPVLDSDGSYFMYSKLRVEKKNWVERNSYSCSVVHEGLHNHHTTKSFSRTPGK
# light: MDMRVPAQLLGLLLLWLSGARCDVLMTQTPLSLPVSLGDQASISCRSSQSIVHSNGNTYLEWYLQKPGQSPKLLIYKVSNRFSGVPDRFSGSGSGTDFTLKINRVEAEDLGVYYCFQGSHVPWTFGGGTKLEIKADAAPTVSIFPPSSEQLTSGGASVVCFLNNFYPKDINVKWKIDGSERQNGVLNSWTDQDSKDSTYSMSSTLTLTKDEYERHNSYTCEATHKTSTSPIVKSFNRNEC
# modifications: Amino acid sequence of the recombinant 7C10-C5 heavy chain; Amino acid sequence of the recombinant 7C10-C5 light chain
# How the values were obtained:
# PP6 = assay: Summary of cross-reactivities of C-terminal PP2Ac antibodies (Table 4), PP6; conditions: antibodies screened for binding methylated PP2Ac
# Excerpt: Examples of antibodies with a preference for non-methylated PP2Ac are mouse monoclonal antibody 4B7 (Yu (2001), Mol Biol Cell 12, 185-199), mouse monoclonal antibody 1D7 generated by the Ogris lab but also the rabbit monoclonal E155 antibody from Abeam and the mouse monoclonal F-8 from SCBT that were thought to be specific for pTyr^307.
# PP2Ac = target: T1, PP2Ac (Homo sapiens, UniProt P67775); assay: Western blot of human cell lysates (HAP1, HEK293; NaOH treatment, Lcmt-1-KO); type: binding
# T1 construct: the carboxy-terminal methyl group was chemically removed from cellular PP2Ac; endogenous in cells; host or cells: HAP1 wild type, HAP1 Lcmt-1-KO, HEK293Trex / HEK293T
# T1 sequence (P67775 whole entry): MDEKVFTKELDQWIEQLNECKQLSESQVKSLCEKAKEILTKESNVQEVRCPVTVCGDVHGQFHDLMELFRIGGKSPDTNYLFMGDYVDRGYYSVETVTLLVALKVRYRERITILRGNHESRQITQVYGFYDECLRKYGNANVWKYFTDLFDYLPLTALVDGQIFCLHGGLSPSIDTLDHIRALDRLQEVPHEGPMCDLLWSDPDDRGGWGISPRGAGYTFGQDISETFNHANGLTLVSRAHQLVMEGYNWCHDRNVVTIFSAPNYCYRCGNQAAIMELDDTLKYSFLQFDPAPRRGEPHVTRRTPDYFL
# Protocol: NIH3T3 mouse fibroblasts and human embryonic kidney cells (HEK293Trex) were grown in DMEM+10% FCS+2 mM L-glutamine (Sigma, G2150)+100 units/ml Penicillin/0.1 mg/ml Streptomycin at 37° C. in a 7.5% CO2 atmosphere. HAP1 wild type and HAP1 Lcmt-1-KO cells (Leucine carboxyl methyltransferase 1 deleted by CRISPR/Cas9; Horizon Discovery, #C631 and #HZGHC004373c001) were grown in Iscove's Modified Dulbecco's Medium (IMDM, Thermo Fischer Scientific, Life Technologies #12440053) supplemented with 10% (v/v) Fetal Calf Serum (FCS) (Sigma #F7524, lot 104M3333), GlutaMAX™ (Thermo Fischer Scientific, Life Technologies #35050-38, lot 1895829), and Penicillin-Streptomycin solution (Sigma, #P4333, lot 125M4781V) in a 5% CO2 atmosphere. Of note, HAP1 is a near-haploid human cell line that was derived from the chronic myelogenous leukemia (CML) cell line KBM-7 (Carette (2011), Nature 477(7364):340-3). For cell lysis, exponentially growing cells were washed once with ice-cold PBS, once with ice-cold IP-Wash buffer (20 mmol/l Tris pH 8.0, 135 mmol/l NaCl, 10% glycerol) and lysed on the petri-dish in ice-cold IP-Lyse buffer (18 mmol/l Tris pH 8.0, 122 mmol/l NaCl, 9% glycerol, 1% w/v NP-40) for 20 min at 4° C. rocking. Lysed cells were transferred to Eppendorf 1.5 ml tubes and centrifuged for 15 min at 14,000 rpm at 4° C. in a Beckman & Coulter Microfuge 18 centrifuge. The protein concentration was determined with the Protein Assay Dye Reagent (Biorad, 500-0006) and measurement of absorbance at 595 nm in a Hitachi U-2000 spectrophotometer. […]
# To test these antibodies in the western blot analysis with methylated and non-methylated full-length PP2Ac the methyl group was chemically removed from cellular PP2Ac by treating lysates of the human cell line, HAP1, with NaOH, as described in Example 2. […] In agreement with the results of the NaOH experiments, […] of PP2Ac were detected in HAP1 cells that lack the PP2A methyltransferase LCMT-1 indicating the preference of these antibodies for non-methylated PP2Ac (FIG. 22). […]
molecule,measurement,setting,value
B1,PP6 meLeu^305,PP6,— (— <15%)
same,detection of PP2Ac in HAP1 cells that lack LCMT-1 (Lcmt-1-KO),PP2Ac,no carboxymethylated PP2Ac specific signals were detected
same,detection of PP2Ac in untreated versus NaOH treated cell lysates,"PP2Ac; HAP1, HEK293",only detected methylated PP2Ac in the untreated cell lysates but not in the NaOH treated lysates

# Reference: patent publication US20230121197A1, “ANTIBODIES SPECIFICALLY BINDING THE CARBOXYMETHYLATED CATALYTIC SUBUNIT OF PROTEIN PHOSPHATASE 2A” (Medizinische Universität Wien, priority 2020, published 2023)
